Assays:
DENV1 WT prM-E VLP = settings: 20 mM NH4Cl-treated vs untreated cells
Procedure: (§1) Expression of prM-E and VLP production. WT and E H244A mutant DENV1 prM-E sequences were PCR-amplified from the pGDENV1 3.3 subclones described above, and cloned into pcDNA4/TO (Invitrogen, Life Technologies, Carlsbad, Calif.). These constructs were transfected into T-REx™-293 cells (Invitrogen, Life Technologies, Carlsbad, Calif.) using Lipofectamine™ 2000 (Invitrogen, Life Technologies, Carlsbad, Calif.) and selected in T-REx HEK medium containing 125 μg/ml Zeocin, all as previous described.
(§2) For VLP secretion studies, 2-3×10^6 cells were seeded in 10 cm plates, cultured for 24 h, and then induced by culture for 36 h in 1.5 μg/ml tetracycline in DME medium with 10% FCS at 37° C. The culture media were centrifuged at 10,000×g for 30 min to remove cell debris. VLPs were then pelleted through a 0.5 ml sucrose cushion by centrifugation at 54,000 rpm for 2 h at 4° C. using a TLS55 rotor. To test the effect of neutralizing the pH of acidic cellular compartments, cells were seeded and induced as above. After 2 h of induction the media were changed to DME medium containing 20 mM HEPES pH 8.0, 2% FCS, and 1.5 μg/ml tetracycline plus 20 mM NH4Cl as indicated, and the incubation continued for a total of 36 h. E proteins in the cell lysates were immunoprecipitated using mAb 4G2.

DENV1 H244A prM-E VLP = settings: 20 mM NH4Cl, total 36 h, vs untreated cells
Procedure: as §1, §2

[1] = target: DENV2 E′ protein (dimeric E ectodomain, E residues 1-395, ST tag) (Dengue virus 2 New Guinea C (NGC) strain); test: cell-based or functional assay
[2] = target: DENV2 E DI/II H244A protein (Dengue virus 2 New Guinea C (NGC) strain); test: cell-based or functional assay
[3] = target: DENV2 E DI/II protein (monomeric, E residues 1-291, STST tag), wild type (Dengue virus 2 New Guinea C (NGC) strain); test: cell-based or functional assay

**Q.** What does the source list for `Cl.N` [NH4Cl]?
**A.** WT VLP production (DENV1 WT prM-E VLP): similar; increase in production of VLP containing H244A mutant E protein (DENV1 H244A prM-E VLP): 4-7 fold

**Q.** What does the source list for “recombinant DENV2 pr peptide (prM residues 1-86 with N-terminal GS and C-terminal tandem Strep tag)”?
**A.** E′ co-floatation with liposomes at pH 5.75, pr:E′ molar ratio 12:1 (about 70% with a control protein) [1]: 2%; E′ co-floatation with liposomes, pr:E′ molar ratio 3:1 [1]: 22%; E′ co-floatation with liposomes, pr:E′ molar ratio 6:1 [1]: 8%; E′ co-floatation with liposomes, pr:E′ molar ratio 24:1 [1]: 0.4%; efficiency of floatation of H244A DI/II with liposomes, in the absence of pr [2]: 43%; efficiency of floatation of H244A DI/II with liposomes, in the presence of pr [2]: 47%

**Q.** How did the DI/II co-floatation with liposomes at low pH in the presence of DIII (none with BSA in place of DIII) [3] turn out when “DENV2 NGC DIII protein (LDIIIH1CS, E residues 289-430)” was run?
**A.** 25%

Reference: patent US20130203655A1, “METHODS FOR PREVENTING OR TREATING VIRAL INFECTION” (priority 2010, published 2013)
